Test results from publication PMC4908374, “A humanized anti-DLL4 antibody promotes dysfunctional angiogenesis and inhibits breast tumor growth” (Scientific Reports, 2016).
Where “and” joins values, the source holds several entries; their conditions need not be identical. Equal entries are not always repeated.

B1: HCLC, murine-human chimeric anti-DLL4 antibody (VH and VL of MMGZ01 on human constant regions) (antibody, V domains shown)
VH: EVQLEESGTELARPGASVKLSCKASGYIFSGYWMQWIKQRPGQGLEWIGAIYPGDGDTRYTQKFKGKATLTADKSSSTAYMQLSSLASEDSAVYYCAGGNFFFDYWGLGTTLAVSS
VL: DIVITQSPALMAASPGEKVTITCSVSSSISSSYLHWYQQKSGISPKPWIYGTSNLASGVPARFSGSGSGTSYSLTITSMEAEDAATYYCQQWSSSPLTFGAGTKLELK
notes: as the VH of m6; as the VL of m6; Full-length IgG1; also called chimeric antibody; source: CHO-s, transiently transfected, in supernatant
B2: H3L2, humanized anti-DLL4 antibody (VH3, VL2) (antibody, V domains shown)
VH: QVQLVQSGAEVKKPGSSVKVSCKASGYTFSGYWMQWIKQAPGQGLEWIGAIYPGDGDTRYTQKFKGRATLTADKSTSTAYMELSSLRSEDTAVYYCAGGNFFFDYWGQGTLVTVSS
VL: EIVITQSPDFQSVTPKEKVTITCSVSSSISSSYLHWYQQKPDQSPKPWIYGTSNLASGVPSRFSGSGSGTDYTLTINSLEAEDAATYYCQQWSSSPLTFGQGTKLEIK
notes: Full-length IgG1; also called humanized antibody; source: CHO-s, transiently transfected, in supernatant

Target: T1, rhDLL4 (recombinant human Delta-like 4) (Homo sapiens, UniProt Q9NR61)
T1 construct: Delta-like 4 (DLL4), human, recombinant
Assay: SPR; Biacore X100; HCLC or H3L2 captured (up to 2,000 RU) by anti-human IgG Fc antibody immobilised on a CM5 chip; rhDLL4 up to 100 nM flowed; 25 °C, 30 μl/min; 1:1 binding model; KD from kd/ka
Conditions: both partners purified

T1 sequence (Q9NR61 27-685, stated change not applied): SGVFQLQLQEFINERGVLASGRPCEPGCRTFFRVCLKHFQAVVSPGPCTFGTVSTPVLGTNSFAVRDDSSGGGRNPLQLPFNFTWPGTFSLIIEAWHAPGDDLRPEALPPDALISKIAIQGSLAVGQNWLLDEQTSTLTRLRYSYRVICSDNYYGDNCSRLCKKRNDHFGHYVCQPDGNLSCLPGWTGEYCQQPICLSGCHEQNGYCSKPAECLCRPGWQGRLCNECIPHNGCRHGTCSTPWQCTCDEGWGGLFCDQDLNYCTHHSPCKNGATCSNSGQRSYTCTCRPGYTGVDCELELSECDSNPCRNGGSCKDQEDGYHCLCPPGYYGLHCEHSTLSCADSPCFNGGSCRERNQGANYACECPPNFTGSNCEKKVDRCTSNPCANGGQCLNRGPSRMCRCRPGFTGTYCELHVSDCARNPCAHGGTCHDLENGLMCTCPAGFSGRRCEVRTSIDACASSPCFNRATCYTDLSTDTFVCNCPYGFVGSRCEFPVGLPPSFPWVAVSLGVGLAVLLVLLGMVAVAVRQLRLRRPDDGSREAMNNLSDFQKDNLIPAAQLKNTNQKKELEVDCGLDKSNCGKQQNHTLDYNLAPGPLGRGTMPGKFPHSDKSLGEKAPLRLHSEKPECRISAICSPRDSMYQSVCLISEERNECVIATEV

Binder | Kd | koff [s⁻¹] | kon [M⁻¹ s⁻¹]
B1 | 1.14 pM and 1.41 pM | 2.42e-05 | 1.72e+07
B2 | 2.26 pM | 2.59e-05 | 1.15e+07
